This assay concerns the target T1, hCMV glycoprotein H (gH) (human cytomegalovirus (Human …, UniProt Q6SW67 24-742)).
T1 construct: also called envelope glycoprotein H
T1 sequence: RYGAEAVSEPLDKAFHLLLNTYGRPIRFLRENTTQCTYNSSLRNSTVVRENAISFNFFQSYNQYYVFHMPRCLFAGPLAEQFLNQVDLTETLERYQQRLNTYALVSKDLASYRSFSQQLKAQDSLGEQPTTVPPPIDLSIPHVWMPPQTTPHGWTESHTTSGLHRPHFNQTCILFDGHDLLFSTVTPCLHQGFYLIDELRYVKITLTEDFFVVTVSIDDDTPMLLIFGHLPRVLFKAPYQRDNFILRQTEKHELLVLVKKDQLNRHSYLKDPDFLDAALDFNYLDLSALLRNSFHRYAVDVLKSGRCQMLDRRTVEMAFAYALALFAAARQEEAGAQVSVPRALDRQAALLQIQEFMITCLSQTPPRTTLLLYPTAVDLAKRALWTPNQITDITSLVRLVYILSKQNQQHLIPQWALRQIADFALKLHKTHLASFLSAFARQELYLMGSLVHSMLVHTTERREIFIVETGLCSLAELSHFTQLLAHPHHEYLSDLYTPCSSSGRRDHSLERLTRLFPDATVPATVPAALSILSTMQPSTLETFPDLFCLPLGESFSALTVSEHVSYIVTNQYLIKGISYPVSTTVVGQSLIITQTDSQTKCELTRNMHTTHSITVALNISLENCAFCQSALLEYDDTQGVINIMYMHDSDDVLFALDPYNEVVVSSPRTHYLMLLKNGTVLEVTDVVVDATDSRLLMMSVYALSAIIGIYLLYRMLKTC
Nature of the assay: co-expression in HeLa cells, surface gH read by FACS with 3G16. (In general: Flow cytometry measures light scatter and fluorescence of single cells or particles in a stream.)

B1: hCMV glycoprotein L (gL) (other)
chain: AAVSVAPTAAEKVPAECPELTRRCLLGEVFEGDKYESWLRPLVNVTGRDGPLSQLIRYRPVTPEAANSVLLDEAFLDTLALLYNNPDQLRALLTLLSSDTAPRWMTVMRGYSECGDGSPAVYTCVDDLCRGYDLTRLSYGRSIFTEHVLGFELVPPSLFNVVVAIRNEATRTNRAVRLPVSTAAAPEGITLFYGLYNAVKEFCLRHQLDPPLLRHLDKYYAGLPPELKQTRVNLPAHSRYGPQAVDAR
Turning to B1, the binding result is given as “binds”.
